According to patent publication US20050079494A1 (MONSANTO TECHNOLOGY, published 2005):
Residue numbers refer to the chain shown, from its start.

Columns and labels:
[1] = target: the molecule itself; experiment: self-assembly in E. coli; 5-25% sucrose density gradient, SDS-PAGE with Coomassie staining
Experimental: (§1) To characterize the expression of the wild-type and epitope-tagged (mature) glycinin A₁ₐB1b protein in E. coli, plasmids pMON65950, pMON65951, and pMON65952 are transformed into E. coli Origami™ (DE3) competent cells according to manufacturer's instructions (Novagen). A single colony is used to inoculate 2 ml LB medium. The culture is grown at 37° C. until a cell density corresponding to A₆₀₀=0.6 is achieved. An amount corresponding to a final concentration of 1 mM isopropyl-1-thio-β-D-galactopyranoside (IPTG) is added to induce protein expression and the culture is incubated at temperatures ranging from 20° to 37° C. at 225 rpm for time periods up to 20 hours. Cells are harvested by centrifugation at 5,000 rpm for 15 min at 4° C. The cell pellet is re-suspended in protein extraction buffer consisting of 20 mM Tris-HCl, pH 7.4, 0.4 M NaCl, 0.1% TritonX-100, 40 μl/ml Protease Inhibitor Cocktail, (stock: 1 tablet/2 ml, Boehringer Mannheim, Indianapolis, Ind.). The cells are then disrupted by sonication (Branson Sonifier 450, Branson Precision Processing, Danbury, Conn.) while maintaining at cold temperature with ice. Soluble proteins are separated from the insoluble fraction by centrifugation at 13,000 rpm for 5 minutes. […]

[2] = target: the molecule itself; experiment: self-assembly in E. coli; sucrose density gradient, anti-FLAG western blot of fractions
Experimental: To determine if the recombinant forms of glycinin A₁ₐB1b expressed in E. coli from […], pMON65951, and pMON65952 could self-assemble to form trimers, aliquots of the soluble protein fraction from E. coli lysates are layered onto 12 ml of a 5-25% sucrose density gradient, and centrifuged at 36,000 rpm for 17.5 hours at 20° C. (Sorvall TH-641 rotor; Sorvall Ultra Pro 80 ultracentrifuge). Following centrifugation, the gradient is divided into fractions using a Labconco Autodensi-Flow instrument (Labconco, Kansas City, Mo.), and each fraction is analyzed by SDS-polyacrylamide gel electrophoresis followed either by Coomassie staining or by western blot analysis using Anti-FLAG M2 antibody (Stratagene Corporation, La Jolla, Calif.), to determine which fractions contained glycinin A₁ₐB1b. 7S and 11S soy protein fractions, as well as ovalbumin (45 kD) and aldolase (158 kD), are run as size markers on separate gradients.
This example sets forth confirmation of the protein structure from the expression of modified glycinin A₁ₐB1b clones. The assembly properties of the following modified forms of the protein (indicated by mutant ID number), each containing a different isoleucine substitution, are determined as described in Example 3. Western blot analysis of sucrose gradient fractions is carried out as in Example 3 using anti-FLAG antibody for each of mutants G1-4 through G13-2.

[3] = target: the molecule itself; experiment: self-assembly in E. coli; 5-25% sucrose density gradient, SDS-PAGE with Coomassie or anti-FLAG M2 western blot
Experimental: as §1

B1: mature form (plus additional methionine encoded by start codon) of glycinin A1aB1b encoded by pMON65950 (other)
chain: MFSSREQPQQNECQIQKLNALKPDNRIESEGGLIETWNPNNKPFQCAGVALSRCTLNRNALRRPSYTNGPQEIYIQQGKGIFGMIYPGCPSTFEEPQQPQQRGQSSRPQDRHQKIYNFREGDLIAVPTGVAWWMYNNEDTPVVAVSIIDTNSLENQLDQMPRRFYLAGNQEQEFLKYQQEQGGHQSQKGKHQQEEENEGGSILSGFTLEFLEHAFSVDKQIAKNLQGENEGEDKGAIVTVKGGLSVIKPPTDEQQQRPQEEEEEEEDEKPQCKGKDKHCQRPRGSQSKSRRNGIDETICTMRLRHNIGQTSSPDIYNPQAGSVTTATSLDFPALSWLRLSAEFGSLRKNAMFVPHYNLNANSIIYALNGRALIQVVNCNGERVFDGELQEGRVLIVPQNFVVAARSQSDNFEYVSFKTNDTPMIGTLAGANSLLNALPEEVIQHTFNLKSQQARQIKNNNPFKFLVPPQESQKRAVA
notes: Soybean seed storage protein subunit made in E. coli Origami (DE3), no FLAG tag; also called wild-type (mature) glycinin A1aB1b; native form
binding result [1]: binds

B2: glycinin A1aB1b mutant g3-5 (other)
chain: FSSREQPQQNECQIQKLNAIKPDNRIESEGGLIETWNPNNKPFQCAGVALSRCTLNRNALRRPSYTNGPQEIYIQQGKGIFGMIYPGCPSTFEEPQQPQQRGQSSRPQDRHQKIYNFREGDIIAVPTGVAWWMYNNEDTPVVAVSIIDTNSIENQLDQMPRRFYLAGNQEQEFLKYQQEQGGHQSQKGKHQQEEENEGGSILSGFTLEFLEHAFSVDKQIAKNLQGENEGEDKGAIVTVKGGLSVIKPPTDEQQQRPQEEEEEEEDEKPQCKGKDKHCQRPRGSQSKSRRNGIDETICTMRLRHNIGQTSSPDIYNPQAGSVTTATSLDFPAISWLRLSAEFGSIRKNAMFVPHYNLNANSIIYAINGRALIQVVNCNGERVFDGELQEGRVLIVPQNFVVAARSQSDNFEYVSFKTNDTPMIGTLAGANSLLNALPEEVIQHTFNLKSQQARQIKNNNPFKFLVPPQESQKRAVADYKDDDDK
binding result [2]: no binding

B3: glycinin A1aB1b mutant g10-10 (other)
chain: B2 chain with I20L, L60I, I122L, I152L, L302I, I333L, L336I, I345L, I366L, L393I
binding result [2]: no binding

B4: glycinin A1aB1b mutant g6-4 (other)
chain: B2 chain with I122L
binding result [2]: no binding

B5: glycinin A1aB1b mutant g6-7 (other)
chain: B2 chain with I152L
binding result [2]: no binding

B6: amino-terminal epitope (FLAG)-tagged form of glycinin A1aB1b encoded by pMON65951 (other)
chain: MDYKDDDDKFSSREQPQQNECQIQKLNALKPDNRIESEGGLIETWNPNNKPFQCAGVALSRCTLNRNALRRPSYTNGPQEIYIQQGKGIFGMIYPGCPSTFEEPQQPQQRGQSSRPQDRHQKIYNFREGDLIAVPTGVAWWMYNNEDTPVVAVSIIDTNSLENQLDQMPRRFYLAGNQEQEFLKYQQEQGGHQSQKGKHQQEEENEGGSILSGFTLEFLEHAFSVDKQIAKNLQGENEGEDKGAIVTVKGGLSVIKPPTDEQQQRPQEEEEEEEDEKPQCKGKDKHCQRPRGSQSKSRRNGIDETICTMRLRHNIGQTSSPDIYNPQAGSVTTATSLDFPALSWLRLSAEFGSLRKNAMFVPHYNLNANSIIYALNGRALIQVVNCNGERVFDGELQEGRVLIVPQNFVVAARSQSDNFEYVSFKTNDTPMIGTLAGANSLLNALPEEVIQHTFNLKSQQARQIKNNNPFKFLVPPQESQKRAVA
notes: Mature glycinin A1aB1b with start Met and N-terminal FLAG, made in E. coli; self-assembles to trimers; also called pMON65951 protein
binding result [3]: binds

B7: carboxy-terminal epitope (FLAG)-tagged form of glycinin A1aB1b encoded by pMON65952 (other)
chain: MFSSREQPQQNECQIQKLNALKPDNRIESEGGLIETWNPNNKPFQCAGVALSRCTLNRNALRRPSYTNGPQEIYIQQGKGIFGMIYPGCPSTFEEPQQPQQRGQSSRPQDRHQKIYNFREGDLIAVPTGVAWWMYNNEDTPVVAVSIIDTNSLENQLDQMPRRFYLAGNQEQEFLKYQQEQGGHQSQKGKHQQEEENEGGSILSGFTLEFLEHAFSVDKQIAKNLQGENEGEDKGAIVTVKGGLSVIKPPTDEQQQRPQEEEEEEEDEKPQCKGKDKHCQRPRGSQSKSRRNGIDETICTMRLRHNIGQTSSPDIYNPQAGSVTTATSLDFPALSWLRLSAEFGSLRKNAMFVPHYNLNANSIIYALNGRALIQVVNCNGERVFDGELQEGRVLIVPQNFVVAARSQSDNFEYVSFKTNDTPMIGTLAGANSLLNALPEEVIQHTFNLKSQQARQIKNNNPFKFLVPPQESQKRAVADYKDDDDK
notes: Mature glycinin A1aB1b with C-terminal FLAG, made in E. coli; self-assembles to trimers; Template of the isoleucine mutants; also called pMON65952 protein
binding result [3]: binds
